Results taken from patent publication US20230265151A1, “GIP/GLP1 CO-AGONIST COMPOUNDS” (priority 2020, published 2023).
Positions count from the first letter of the chain named. *1 amine or outer side, *2 acyl side, *3 side chain or, on linkers, in order; H or OH if unused. Where no end group is shown, it is not given here. Side-chain parts run from the residue outwards. [ ]: non-standard residue; d: D form. The star is where a group is joined. Decanoyl(10-(4-HOOC-PhO)) = O=C(O)c1ccc(OCCCCCCCCCC(=O)*)cc1; αMePhe(2-F) = C[C@](N)(Cc1ccccc1F)C(=O)O; γGlu = O=C(O)[C@H](CCC(=O)[*:2])N[*:1]; C14 diacid = O=C(O)CCCCCCCCCCCCC(=O)*; αMeY = C[C@](N)(Cc1ccc(O)cc1)C(=O)O; αMeL = CC(C)C[C@](C)(N)C(=O)O; Nle = CCCC[C@H](N)C(=O)O; Orn = NCCC[C@H](N)C(=O)O; AEEA = NCCOCCOCC(=O)O; Aib = CC(C)(N)C(=O)O

T1: human GIP receptor (human, UniProt P48546 22-466)
T1 sequence (looked up): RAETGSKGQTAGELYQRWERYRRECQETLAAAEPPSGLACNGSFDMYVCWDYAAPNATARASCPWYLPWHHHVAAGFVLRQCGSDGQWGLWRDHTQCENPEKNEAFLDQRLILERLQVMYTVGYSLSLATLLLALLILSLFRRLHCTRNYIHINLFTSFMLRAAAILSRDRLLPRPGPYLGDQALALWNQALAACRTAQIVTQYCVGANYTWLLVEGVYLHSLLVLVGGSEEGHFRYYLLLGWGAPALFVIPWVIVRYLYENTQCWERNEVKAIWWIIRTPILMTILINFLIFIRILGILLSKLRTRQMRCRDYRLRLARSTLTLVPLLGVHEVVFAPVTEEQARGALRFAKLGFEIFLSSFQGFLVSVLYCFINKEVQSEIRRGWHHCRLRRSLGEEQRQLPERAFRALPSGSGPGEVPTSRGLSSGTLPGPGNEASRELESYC

B1: Example 333 (peptide)
peptide: Y[Aib]EGT[αMePhe(2-F)]TSD[Nle]SI[αMeL]LD[Orn]IAQ[Aib]K([AEEA-AEEA-γGlu-Decanoyl(10-(4-HOOC-PhO))])FI[dE][αMeY]LIK([AEEA-AEEA-γGlu-Decanoyl(10-(4-HOOC-PhO))])GGPSSGAPPPS-NH2
modifications: N-terminus assumed
SMILES: CCCC[C@H](NC(=O)[C@H](CC(=O)O)NC(=O)[C@H](CO)NC(=O)[C@@H](NC(=O)[C@](C)(Cc1ccccc1F)NC(=O)[C@@H](NC(=O)CNC(=O)[C@H](CCC(=O)O)NC(=O)C(C)(C)NC(=O)[C@@H](N)Cc1ccc(O)cc1)[C@@H](C)O)[C@@H](C)O)C(=O)N[C@@H](CO)C(=O)N[C@H](C(=O)N[C@@](C)(CC(C)C)C(=O)N[C@@H](CC(C)C)C(=O)N[C@@H](CC(=O)O)C(=O)N[C@@H](CCCN)C(=O)N[C@H](C(=O)N[C@@H](C)C(=O)N[C@@H](CCC(N)=O)C(=O)NC(C)(C)C(=O)N[C@@H](CCCCNC(=O)COCCOCCNC(=O)COCCOCCNC(=O)CC[C@H](NC(=O)CCCCCCCCCOc1ccc(C(=O)O)cc1)C(=O)O)C(=O)N[C@@H](Cc1ccccc1)C(=O)N[C@H](C(=O)N[C@H](CCC(=O)O)C(=O)N[C@@](C)(Cc1ccc(O)cc1)C(=O)N[C@@H](CC(C)C)C(=O)N[C@H](C(=O)N[C@@H](CCCCNC(=O)COCCOCCNC(=O)COCCOCCNC(=O)CC[C@H](NC(=O)CCCCCCCCCOc1ccc(C(=O)O)cc1)C(=O)O)C(=O)NCC(=O)NCC(=O)N1CCC[C@H]1C(=O)N[C@@H](CO)C(=O)N[C@@H](CO)C(=O)NCC(=O)N[C@@H](C)C(=O)N1CCC[C@H]1C(=O)N1CCC[C@H]1C(=O)N1CCC[C@H]1C(=O)N[C@@H](CO)C(N)=O)[C@@H](C)CC)[C@@H](C)CC)[C@@H](C)CC)[C@@H](C)CC
B2: Example 345 (peptide)
peptide: YXEGTXTSDXXIXLDXIAQXEFIKXLIKGGPSSGAPPPS
modifications: Y-Aib-EGT-αMeF(2F)-TSD-4Pal-Aib-I-αMeL-LD-Orn-IAQ-Aib-EFIK((2-[2-(2-Amino-ethoxy)-ethoxy]-acetyl)3-(γ-Glu)-(10-(4-carboxyphenoxy)decanoyl))-αMeY-LIK((2-[2-(2-Amino-ethoxy)-ethoxy]-acetyl)3-(γ-Glu)-(10-(4-carboxyphenoxy)decanoyl))GGPSSGAPPPS-NH2
B3: Example 346 (peptide)
peptide: B2 peptide with X10Y
modifications: Y-Aib-EGT-αMeF(2F)-TSDY-Aib-I-αMeL-LD-Orn-IAQ-Aib-EFIK(2-[2-(2-Amino-ethoxy)-ethoxy]-acetyl)3-(γ-Glu)-(10-(4-carboxyphenoxy)decanoyl)-αMeY-LIK((2-[2-(2-Amino-ethoxy)-ethoxy]-acetyl)3-(γ-Glu)-(10-(4-carboxyphenoxy)decanoyl)GGPSSGAPPPS-NH2)
B4: Example 328 (peptide)
peptide: B2 peptide with X11S, I17K, K24X
modifications: Y-Aib-EGT-αMeF(2F)-TSD-Nle-SI-αMeL-LD-Orn-K((2-[2-(2-Amino-ethoxy)-ethoxy]-acetyl)2-(γ-Glu)-(10-(4-carboxyphenoxy)decanoyl))AQ-Aib-EFI-(D-Glu)-αMeY-LIK((2-[2-(2-Amino-ethoxy)-ethoxy]-acetyl)2-(γ-Glu)-(10-(4-carboxyphenoxy)decanoyl))GGPSSGAPPPS-NH2
B5: Example 327 (peptide)
peptide: B2 peptide with X11S, I17K, K24X
modifications: Y-Aib-EGT-αMeF(2F)-TSD-hTyr-SI-αMeL-LD-Orn-K((2-[2-(2-Amino-ethoxy)-ethoxy]-acetyl)2-(γ-Glu)-(10-(4-carboxyphenoxy)decanoyl))AQ-Aib-EFI-(D-Glu)-αMeY-LIK((2-[2-(2-Amino-ethoxy)-ethoxy]-acetyl)2-(γ-Glu)-(10-(4-carboxyphenoxy)decanoyl))GGPSSGAPPPS-NH2
B6: Example 342 (peptide)
peptide: B2 peptide
modifications: Y-Aib-EGT-αMeF(2F)-TSD-4Pal-Aib-I-αMeL-LD-Orn-IAQ-Aib-EFIK((2-[2-(2-Amino-ethoxy)-ethoxy]-acetyl)3-(γ-Glu)-CO-(CH2)12-CO2H)-αMeY-LIK((2-[2-(2-Amino-ethoxy)-ethoxy]-acetyl)3-(γ-Glu)-CO-(CH2)12-CO2H)GGPSSGAPPPS-NH2
B7: Example 320 (peptide)
peptide: YXEGTXTSDXSIXLDXKAQXKFIXXLIEGGPSSGAPPPS
modifications: Y-Aib-EGT-αMeF(2F)-TSD-hTyr-SI-αMeL-LD-Orn-K((2-[2-(2-Amino-ethoxy)-ethoxy]-acetyl)2-(y-Glu)-(10-(4-carboxyphenoxy)decanoyl))AQ-Aib-K((2-[2-(2-Amino-ethoxy)-ethoxy]-acetyl)2-(γ-Glu)-(10-(4-carboxyphenoxy)decanoyl))FI-(D-Glu)-αMeY-LIEGGPSSGAPPPS-NH2
B8: Example 335 (peptide)
peptide: B7 peptide with K21E, E28K
modifications: Y-Aib-EGT-αMeF(2F)-TSD-hTyr-SI-αMeL-LD-Orn-K((2-[2-(2-Amino-ethoxy)-ethoxy]-acetyl)2-(γ-Glu)-CO-(CH2)10-CH3)AQ-Aib-EFI-(D-Glu)-αMeY-LIK((2-[2-(2-Amino-ethoxy)-ethoxy]-acetyl)2-(γ-Glu)-CO-(CH2)10-CH3)GGPSSGAPPPS-NH2
B9: Example 343 (peptide)
peptide: B2 peptide with X10Y
modifications: Y-Aib-EGT-αMeF(2F)-TSDY-Aib-I-αMeL-LD-Orn-IAQ-Aib-EFIK((2-[2-(2-Amino-ethoxy)-ethoxy]-acetyl)3-(γ-Glu)-CO-(CH2)12-CO2H)-αMeY-LIK((2-[2-(2-Amino-ethoxy)-ethoxy]-acetyl)3-(γ-Glu)-CO-(CH2)12-CO2H)GGPSSGAPPPS-NH2
B10: Example 323 (peptide)
peptide: B7 peptide
modifications: Y-Aib-EGT-αMeF(2F)-TSD-hTyr-SI-αMeL-LD-Orn-K((2-[2-(2-Amino-ethoxy)-ethoxy]-acetyl)2-(γ-Glu)-CO-(CH2)10-CH3)AQ-Aib-K((2-[2-(2-Amino-ethoxy)-ethoxy]-acetyl)2-(γ-Glu)-CO-(CH2)10-CH3)FI-(D-Glu)-αMeY-LIEGGPSSGAPPPS-NH2
B11: Example 321 (peptide)
peptide: B7 peptide
modifications: Y-Aib-EGT-αMeF(2F)-TSD-Nle-SI-αMeL-LD-Orn-K((2-[2-(2-Amino-ethoxy)-ethoxy]-acetyl)2-(γ-Glu)-(10-(4-carboxyphenoxy)decanoyl))AQ-Aib-K((2-[2-(2-Amino-ethoxy)-ethoxy]-acetyl)2-(γ-Glu)-(10-(4-carboxyphenoxy)decanoyl))FI-(D-Glu)-αMeY-LIEGGPSSGAPPPS-NH2

Molecular target: T1, human GIP receptor
Test: cell-based or functional assay

In order of falling “cAMP EC50 (1.0% HSA)” value:
1. B1  6.74 nM
2. B9  2.38 nM
3. Y[Aib]EGT[αMePhe(2-F)]TSDV[Aib]I[αMeL]LD[Orn]IAQ[Aib][Orn]FIK([AEEA-AEEA-γGlu-C14 diacid])[αMeY]LIK([AEEA-AEEA-γGlu-C14 diacid])GGPSSGAPPPS-NH2 [Example 317]  2.03 nM
4. B3  1.83 nM
5. B6  1.04 nM
6. B8  1.04 nM
7. B5  0.751 nM
8. B4  0.75 nM
9. B2  0.731 nM
10. B10  0.694 nM
11. B11  0.631 nM
12. B7  0.338 nM

In order of falling “cAMP Emax (1.0% HSA)” value:
1. B9  90.2%
2. Y[Aib]EGT[αMePhe(2-F)]TSDV[Aib]I[αMeL]LD[Orn]IAQ[Aib][Orn]FIK([AEEA-AEEA-γGlu-C14 diacid])[αMeY]LIK([AEEA-AEEA-γGlu-C14 diacid])GGPSSGAPPPS-NH2 [Example 317]  84.4%
3. B7  84.1%
4. B3  83.9%

Molecular target: human GLP-1 receptor (human, UniProt P43220 24-463)
Test: cell-based or functional assay

In order of rising “cAMP EC50 (1.0% HSA)” value:
1. B7  6.22 nM
2. B10  9.52 nM
3. B2  11.8 nM
4. B8  12.3 nM
5. B5  13.6 nM
6. B6  13.6 nM
7. B11  13.9 nM
8. B3  19 nM
9. B9  20.2 nM
10. B4  23.3 nM
11. Y[Aib]EGT[αMePhe(2-F)]TSDV[Aib]I[αMeL]LD[Orn]IAQ[Aib][Orn]FIK([AEEA-AEEA-γGlu-C14 diacid])[αMeY]LIK([AEEA-AEEA-γGlu-C14 diacid])GGPSSGAPPPS-NH2 [Example 317]  29.5 nM
12. B1  70.4 nM

In order of falling “cAMP Emax (1.0% HSA)” value:
1. B9  98.2%
2. B3  97.7%

Molecular target: human glucagon receptor (human, UniProt P47871 26-477)
Test: cell-based or functional assay

B1 and B2 cannot be ordered by “cAMP EC50 (1.0% HSA)” value: > 9950 nM for the first, > 9950 nM for the second.

B3 and B4 cannot be ordered by “cAMP EC50 (1.0% HSA)” value: > 9950 nM for the first, > 9950 nM for the second.

B5 and B6 cannot be ordered by “cAMP EC50 (1.0% HSA)” value: > 9950 nM for the first, > 9950 nM for the second.

B7 and B8 cannot be ordered by “cAMP EC50 (1.0% HSA)” value: > 9950 nM for the first, > 9950 nM for the second.

B9 and B10 cannot be ordered by “cAMP EC50 (1.0% HSA)” value: > 9950 nM for the first, > 9950 nM for the second.

B11 and Y[Aib]EGT[αMePhe(2-F)]TSDV[Aib]I[αMeL]LD[Orn]IAQ[Aib][Orn]FIK([AEEA-AEEA-γGlu-C14 diacid])[αMeY]LIK([AEEA-AEEA-γGlu-C14 diacid])GGPSSGAPPPS-NH2 [Example 317] cannot be ordered by “cAMP EC50 (1.0% HSA)” value: > 9950 nM for the first, > 9950 nM for the second.
